± gives the uncertainty stated by the source.
Experiment: amyloid nucleation score (Sup35N fusion, yeast selection) (log enrichment); library NNK3; higher = more nucleation; inactive = no reads after selection
Method in brief: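 Growth for 7 days at 30°C on medium lacking adenine and uracil followed a 24-hour induction with 100 μM copper sulfate of psi-negative yeast expressing peptides of 20 random codons fused to Sup35N. Input and output plasmid inserts were sequenced with Illumina, and sequences with under 100 input reads were excluded. Nucleation score is the DiMSum log enrichment of output over input reads, centred on the mode score of non-aggregating sequences.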

Substance	amyloid nucleation score
SYFRRIRWQLEEHLLLLWR	inactive
SYFVAAVYYQDERNNGFCGQ	inactive
SYGQSCCQDTGLSRNALMQ	inactive
SYHYFGRYCGFR	inactive
SYKSLNCALFLQ	0.574 ± 0.24
SYLESISHPALESARVYVST	inactive
SYMPGNLSGLWAHLLMEKNC	inactive
SYNDSLCLDVQTIYPLHSPS	inactive
SYNILHDVSQLGTRQPPLE	inactive
SYQDMLSYNRMR	inactive
SYQWWLCFFSLFFIGGDFRT	inactive
SYRIRCYAVNITPIAMYIIC	inactive
SYRVCMCSTLVVVVSSRGLS	0.823 ± 0.17
SYRYNRLYHWVHDLLCSTLV	inactive
SYVVRLMSLVAWN	inactive
TAALRIDDQRKAYLGVPRFS	inactive
TACQNDCVGG	inactive
TAFNHRMPGDLWRDDGGARV	0.784 ± 0.24
TAIYIDRNECSLKVYRIKDK	0.612 ± 0.44
TALGSDMTYITARRI	0.671 ± 0.15
TARVMILP	inactive
TATLAC	inactive
TAVWRFATSGKFFYSQSLGM	1.41 ± 0.14
TCCICIMSSYRLGRNLLIEL	-0.075 ± 0.26

Substance	amyloid nucleation score
TCCLIF	1.87 ± 0.073
TCCVIICEFLRRMVSAQSSL	0.758 ± 0.28
TCFESLGLDVPIPYNRWVRS	inactive
TCMSVNVFRGYIIAW	inactive
TCNKLIVRLCDAHKERA	0.745 ± 0.13
TCNYMSGGFALRFTISYGGA	inactive
TCSHIIPYWYGVRNSQVRYS	inactive
TCSKPGSSSMHSAVGKTMSA	inactive
TCSLFFSYPYIGRQHGCGRY	0.444 ± 0.46
TCSVTEMVTL	inactive
TCSYKSC	inactive
TCWCGVRIFFGPQLASSVWL	inactive
TDFMSFINVERMCVILYPFA	1.36 ± 0.077
TDFTYSLTFVYKLGEKTVDI	inactive
TDGYFYDRSSVERSL	inactive
TDISLCNLGKHKVLRGL	inactive
TDVLELVSTHCRYGFSVPQP	inactive
TDWYVIF	inactive
TDYLFLSKWVTLCLSVWCNY	-0.084 ± 0.3
TEGKAVSEV	inactive
TEMMTFGFSGVMFVRVMFWL	inactive
TERESMCFLYWVSRRHYTGN	-0.541 ± 0.55
TERYATNSLCSGIKMALRQV	inactive
TEVFVHFTCEIGYIFLILFQ	inactive

Substance	amyloid nucleation score
TEYCIYFLEV	inactive
TEYFSRCRF	0.36 ± 0.49
TFFNFVDGTSVWRFAGRHIY	inactive
TFFTGKIRNKAVFEDSSYCK	inactive
TFKLD	inactive
TFLKGSLFCCYYTRDAVDYI	2.64 ± 0.054
TFMPIGLNL	inactive
TFRFLSRLSRTLWAFSKGLC	inactive
TFSDVGLFYLTQYDKVPFDL	inactive
TFSYGSFLRSYLLMC	inactive
TFVLRDTDVCKCSSYKRPNF	inactive
TGGRAPHRCVYSD	inactive
TGIYAF	inactive
TGRAFIIPVHAFRYDSVVGV	inactive
TGSVVYLKRDVPAIFKFLLV	inactive
TGWSWISLYWLCSNMVIVNR	inactive
THCFNYILYSCSRAQSSCKY	2.29 ± 0.059
THDSMHKCERMITPRGGCQQ	inactive
THDVFSSVMLGSFSLSSTTN	inactive
THISQNLQSVVHLYVLRKVV	inactive
THLCIEMLRM	-0.297 ± 0.88
THRFGMVR	inactive
THSGQEEWLVNKDAS	inactive
THTSAKDHRVDWLSQL	inactive

Substance	amyloid nucleation score
TICLSRVTYVSRQEWGSASV	-0.023 ± 1
TIEFWGRVAGFLLM	inactive
TIFGDCAEYSYVVLFINLFI	2.1 ± 0.098
TIIMR	inactive
TIMETALDLSMHPMNVH	inactive
TIPYFQYDVFHKEDNWTGML	inactive
TIVNGNVEFGMKLEWEHGCI	inactive
TKADEHYESIYTLCCHFVSP	inactive
TKCNDYFNVSRYSSLDS	inactive
TKDGHYA	inactive
TKDIMHTSSLVRWTHREAWC	inactive
TKFNG	0.709 ± 0.19
TKHETSLVCRLLTETRFKNI	inactive
TKNDRN	inactive
TKSRIWG	inactive
TLALSKSMMYQMVINPAIY	inactive
TLCLQKHPSFGDYIFG	inactive
TLCMVQRSRVVSLLSVGRIL	-0.223 ± 0.55
TLCQREPG	0.209 ± 0.71
TLDVR	inactive
TLFADNAVQIVLERSLRGCG	inactive
TLFQSFRELLRNGVFCLRTM	inactive
TLGDGRPLCLREEWEGPVTC	inactive
TLGMLHRNWYYLLF	inactive

Substance	amyloid nucleation score
TLIFRLYLRRNCNAVFCFVV	0.084 ± 0.56
TLLLIVDNGVNPSLKEMMLL	inactive
TLLLMSWHFGYMRAQF	3.14 ± 0.05
TLLTMTDFAIKFSHKQPGYV	inactive
TLMYFILYYIGLYPE	inactive
TLNIRCRRFVFVWDATNSV	2.88 ± 0.064
TLRNGQMTIGYCSKGISEVG	inactive
TLSCSDFTVLGTCDAVEGIN	inactive
TLSSKDVYMFLDS	inactive
TLTLAFARGDAYPSIARLV	inactive
TLVLVTRQLSFCRMDSRIEF	inactive
TLYFFKYFWMFVVMCKINKA	inactive
TMAYGAPLPHSTSYYITIMS	inactive
TMCKRLVVTYQLAYWRVSV	inactive
TMHGAQFCD	inactive
TMQEGRLSSWYSTVFFS	-0.073 ± 0.43
TMSGWFNGCVYGVSAIHSSD	inactive
TMVICLSLLRNMILHF	inactive
TNDAGHVWYSLCLRIFNTNV	inactive
TNDLYEFVPRAVILTSICLL	inactive
TNGKPFYFPLAVMMSG	inactive
TNRVIVSMRLYVMDLYYCRT	inactive
